Source: the supplement of paper PMC10126150
± gives the standard deviation of the averaged measurements.

Each sequence was assayed on ATP (assay: switch fluorescence ratio, 500 uM ATP over buffer (Cy3 cluster intensity, sum of 5 cycles each) (fold (ratio)); higher = stronger signal-on switching upon ATP binding; sequences stand for … in TCGTCGGCAGCGTCAGATGTGTATAAGAGACAGTTTTTTTTTTTTTTTTTTTTTTTTT…TC). Details: aptamer strand: ATP DNA aptamer (quencher-CACCTGGGGGAGTATTGCGGAGGAAGG + anchor), 100 nM annealed; ATP concentration: 500 uM.
How it was run: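 Clusters with intensities outside 100-1000 RFU were excluded. The remaining Cy3-labelled switching-strand clusters on a modified Illumina MiSeq flow-cell had been annealed to 100 nM quencher-labelled ATP aptamer and imaged in selection buffer, then after 15 min with 500 uM ATP at 22 °C, for five cycles separated by NaOH stripping and re-annealing. The fluorescence ratio, averaged per switch-domain sequence, is each cluster's summed target-cycle Cy3 intensity over its summed buffer-cycle Cy3 intensity.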
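Further: ATP exposure 15 min at 22 °C before imaging.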

Sequence	switch fluorescence ratio
AGGGATTCAT	1.02 ± 0.032
AGGGATTGAA	0.9875 ± 0.0022
AGGGCAAGCG	0.938 ± 0.041
AGGGCAGGGT	0.975 ± 0.018
AGGGCCAAGT	0.997 ± 0.011
AGGGCGGGTA	1.01 ± 0.014
AGGGCTCCTG	1.0172 ± 0.00034
AGGGCTGTTA	0.998 ± 0.033
AGGGCTTTCT	0.97 ± 0.023
AGGGCTTTGT	1 ± 0.014
AGGGGAAAGC	1.01 ± 0.027
AGGGGAAAGG	0.984 ± 0.014
AGGGGAAGCC	1.02 ± 0.066
AGGGGAAGTG	0.955 ± 0.07
AGGGGACTTT	0.978 ± 0.013
AGGGGAGAAC	0.9758 ± 0.0086
AGGGGAGGTG	1.09 ± 0.05
AGGGGAGTAT	1.45 ± 0.66
AGGGGAGTGT	0.988 ± 0.029
AGGGGATCGC	0.996 ± 0.034
AGGGGATTGG	0.991 ± 0.015
AGGGGCACGG	1.02 ± 0.0093
AGGGGCGGCG	1.01 ± 0.061
AGGGGCGGGC	0.884 ± 0.13
AGGGGCGGGG	0.995 ± 0.029
AGGGGCGTAG	1 ± 0.025

Sequence	switch fluorescence ratio
AGGGGGAATG	1 ± 0.044
AGGGGGACTG	0.9635 ± 0.0022
AGGGGGAGAG	0.969 ± 0.013
AGGGGGAGCA	0.9697 ± 0.0045
AGGGGGATCA	1.011 ± 0.0061
AGGGGGATCG	0.9794 ± 0.0018
AGGGGGCAAA	1.02 ± 0.045
AGGGGGCAGA	1.03 ± 0.05
AGGGGGCAGC	1.01 ± 0.015
AGGGGGCCCG	1.009 ± 0.005
AGGGGGCGCG	1.01 ± 0.048
AGGGGGCTGT	0.994 ± 0.03
AGGGGGGACT	0.993 ± 0.011
AGGGGGGAGG	0.997 ± 0.026
AGGGGGGCGA	1.01 ± 0.029
AGGGGGGCGT	1.01 ± 0.016
AGGGGGGCTG	0.975 ± 0.045
AGGGGGGGG	1.03 ± 0.085
AGGGGGGTCA	0.976 ± 0.032
AGGGGGGTTG	1 ± 0.032
AGGGGGTAGA	1.05 ± 0.027
AGGGGGTATC	0.988 ± 0.023
AGGGGGTCAC	1 ± 0.026
AGGGGGTCCG	1.03 ± 0.049
AGGGGGTCGA	1.01 ± 0.035
AGGGGGTGTG	0.989 ± 0.043

Sequence	switch fluorescence ratio
AGGGGGTTTG	1.01 ± 0.033
AGGGGTAAAT	1.02 ± 0.073
AGGGGTAATA	0.9817 ± 0.006
AGGGGTAGCG	0.9539 ± 0.0073
AGGGGTAGGG	1.01 ± 0.027
AGGGGTATCG	1 ± 0.029
AGGGGTATCT	0.9739 ± 0.007
AGGGGTGCGC	0.9894 ± 0.0055
AGGGGTGCGG	1.04 ± 0.08
AGGGGTGGAG	1.02 ± 0.006
AGGGGTGTTT	0.999 ± 0.039
AGGGGTTAGC	0.974 ± 0.05
AGGGTAAATT	1.03 ± 0.053
AGGGTAAGTC	0.972 ± 0.043
AGGGTACAGT	1.04 ± 0.055
AGGGTAGGGG	0.994 ± 0.03
AGGGTAGGTG	1.09 ± 0.012
AGGGTATGTT	0.9682 ± 0.004
AGGGTATTCA	1.01 ± 0.02
AGGGTCAGGG	1.01 ± 0.04
AGGGTCGGAA	1.02 ± 0.018
AGGGTCTTGC	0.998 ± 0.014
AGGGTGCCGT	0.988 ± 0.08
AGGGTGCTCC	1.23 ± 0.33
